Measured values published in patent publication US20110262445A1 (CEPHALON AUSTRALIA, published 2011).
Like-named read-outs stand apart in the source and are kept apart here.

B1: Antibody 136 (antibody, human IgG1, kappa, V domains shown)
VH: EVQLVQSGAEVKKPGATVKISCKASGYTFSDYYLHWVRQAPEKGLEWMGWIDPENGDTEYAPKFQGRVTITADTSTDTGYLELSSLRSEDTAVYYCAANKELRYFDVWGQGTLVTVSS
VL: DIQMTQSPSSVSASVGDRVTITCRASQSISINLHWYQQKPGKAPKLLIYFASQSISGVPSRFSGSGSGTDFSLTINSLQTEDFATYYCQQSNSFPLTFGGGTKVEIKR
notes: Humanized PMA204 (1RZ7 framework)

Assays:
human IL-23 [1] = biological target: T1, human IL-23 (human, UniProt P29460 23-328; Q9NPF7 20-189); test: SPR, IgG on Protein A
T1 construct: Recombinant (Ebioscience); HIS-tagged in flow cytometry, biotinylated in some assays; also called hIL-23; rhIL-23
T1 sequence 1: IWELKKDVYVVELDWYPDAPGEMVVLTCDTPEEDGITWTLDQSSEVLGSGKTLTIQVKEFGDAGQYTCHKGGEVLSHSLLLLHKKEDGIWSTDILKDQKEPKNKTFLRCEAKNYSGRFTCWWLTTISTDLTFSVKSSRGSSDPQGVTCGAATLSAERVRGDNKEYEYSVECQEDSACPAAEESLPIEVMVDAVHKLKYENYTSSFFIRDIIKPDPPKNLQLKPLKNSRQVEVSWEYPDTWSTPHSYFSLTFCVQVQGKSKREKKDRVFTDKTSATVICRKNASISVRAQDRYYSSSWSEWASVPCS
T1 sequence 2: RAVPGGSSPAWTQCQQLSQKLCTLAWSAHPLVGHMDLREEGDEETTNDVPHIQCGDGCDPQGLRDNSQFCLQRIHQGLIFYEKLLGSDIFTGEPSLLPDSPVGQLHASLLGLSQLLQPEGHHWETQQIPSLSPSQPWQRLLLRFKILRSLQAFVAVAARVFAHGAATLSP
Description: (§1) Using SPR technology the kₐ and kd and the KD of various humanized antibodies was determined.
(§2) Using a SPR 3000, Protein A was immobilized onto FC1 and FC2 (or alternatively FC3 and FC4) of a CM5 research grade sensor chip using amine coupling, giving approximately […] RU. FC1 was used a blank throughout the experiments. The experiments were run in HBS-P buffer (SPR). At a flow rate of 20 μl/min, 20 μl of 5 μg/mL of antibody was passed over FC2. IL-12, IL-23 or IL-12p40 (Peprotech) were passed over the surface of FC1 and FC2 at concentrations ranging from 66 nM to 2 nM. Regeneration of the surface was performed using 10 mM Glycine, pH 1.0. The sensorgram data from FC2 was subtracted from FC1 and a buffer only control. The curves were fitted using a 1:1 Langmuir equation to generate the kd, ka and KD values. All curves were fitted with a χ² of less then 2.0 where possible.

human IL-12 [2] = biological target: T2, human IL-12 (human, UniProt P29460 23-328; P29459 23-219); test: SPR, IgG on Protein A
T2 construct: Recombinant (Peprotech); FLAG-tagged IL-12 in the flow cytometry assays, biotinylated in the IL-12Rβ2 assay; also called hIL-12
T2 sequence 1: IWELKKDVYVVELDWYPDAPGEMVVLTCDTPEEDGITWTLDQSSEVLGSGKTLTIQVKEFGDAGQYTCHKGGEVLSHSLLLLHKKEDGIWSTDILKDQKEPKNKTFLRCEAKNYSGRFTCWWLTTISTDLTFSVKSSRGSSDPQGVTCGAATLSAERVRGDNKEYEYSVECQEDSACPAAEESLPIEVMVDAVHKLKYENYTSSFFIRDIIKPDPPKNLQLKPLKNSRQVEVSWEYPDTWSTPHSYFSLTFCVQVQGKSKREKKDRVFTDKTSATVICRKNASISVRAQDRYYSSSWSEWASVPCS
T2 sequence 2: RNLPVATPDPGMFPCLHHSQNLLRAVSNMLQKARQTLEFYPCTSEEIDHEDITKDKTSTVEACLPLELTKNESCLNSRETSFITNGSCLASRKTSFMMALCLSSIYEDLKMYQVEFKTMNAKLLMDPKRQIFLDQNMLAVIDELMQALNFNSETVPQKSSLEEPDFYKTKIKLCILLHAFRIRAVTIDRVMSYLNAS
Description: as §1, §2

human IL-23 [3] = biological target: T1, human IL-23; test: neutralization ELISA: IL-23 preincubated with antibody, its binding to coated IL-23R is blocked
Summary of the method: (§3)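 His-tagged IL-23R made in HEK-293E cells was coated in carbonate buffer overnight at 4° C and blocked with 1% BSA. Biotinylated IL-23 at 50 ng/ml was preincubated with titrated antibody for 2 hours, then added to the wells for 2 hours at 25° C. Detection used Streptavidin HRP 1:5000 and TMB for 15 minutes, stopped with 1M HCl, read at 450 nm (reference 620 nm). IC50 was read off the curve.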

human IL-23 [4] = biological target: T1, human IL-23; test: sandwich ELISA: IL-23 held by coated PMA202, Antibody 136 titrated, anti-human Fc-HRP
human IL-12 [5] = biological target: T2, human IL-12; test: sandwich ELISA: IL-12 held by coated PMA202, Antibody 136 titrated, anti-human Fc-HRP
Summary of the method: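 Capture antibody at 1 μg/mL was coated overnight at 4° C and blocked with 1% BSA. IL-12 at 0.5 μg/ml was bound for 1 hour at 25° C, followed by half-log serial dilutions of test antibody for 1 hour. Bound antibody was detected with goat anti-human IgG Fc-HRP (1:2000) and TMB, stopped with 1 M HCl, and optical density read at 450 nm (reference 620 nm). EC50 was read off the curve.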

human IL-12 [6] = biological target: T2, human IL-12; test: neutralization ELISA: IL-12 preincubated with antibody, its binding to coated IL-12Rβ2/Fc is blocked
Summary of the method: (§4)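 Wells were coated overnight at 4° C with IL-12Rβ2/Fc chimera at 5 ug/ml in carbonate buffer, then blocked with 1% BSA for 1 hour at 25° C. Titrated antibody was preincubated with biotinylated IL-12 for 2 hours, and the mixture was added to the wells for 2 hours at 25° C before detection with Streptavidin HRP 1:5000 and TMB, with absorbance read at 450 nm (reference 620 nm). The IC50 was taken from the resulting curve.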

Antibody 136 [7] = biological target: B1; test: SPR control: PMA202 injected over Antibody 136 captured on Protein A, no cytokine
Description: (§5) Protein A (Thermo) was immobilized onto a CM5 sensor chip using a BIAcore 3000. Chimeric or humanized antibody at 5 ug/mL in HBS-P (GE Healthcare) was then injected for 1 min at a flow rate of 20 ul/min. IL-12 or IL-23 was then injected over the surface at 5 ug/mL in HBS-P for 1 min at a flow rate of 20 ul/min. Murine antibody was then injected at 5 ug/mL in HBS-P for 1 min at a flow rate of 20 ul/min. Controls in which IL-12 or IL-23 was replaced with HBS-P, and in which the murine antibody was replaced with HBS-P were also performed. All data was substrated from a control run in which IL-12 or IL-23 or the murine antibody was tested for background binding to the Protein A surface.

human IL-23 [8] = biological target: T1, human IL-23; test: ELISA, coated IL-23
Description: (§6) IL-12 (Peprotech), IL-23 (Ebioscience™), IL-12p40 (Ebioscience™) or IL-12p80 (Peprotech), was diluted to 1 μg/mL in carbonate coating buffer ([…] pH 9.6) and coated onto a 96 well plate (Nunc™, Maxisorp™) overnight at 4° C. The plate was then washed three times with wash buffer (0.01M PBS pH 7.2, 0.05% Tween-20) and then three times with 0.01M PBS pH 7.2. The wells were then blocked by adding 200 μl of blocking buffer (1% w/v BSA in 0.01 M PBS pH 7.2) to each well and incubating the plate at 25° C. for 1 hour. The antibody was diluted in antibody diluent (1% w/v BSA, 0.05% Tween-20 in 0.01M PBS pH 7.2) sufficient to generate a titration curve. The wells were incubated with the antibody for 1 hour at 25° C. The plate was then washed as previously described. Goat anti-human immunoglobulin G (H+L) antibody HRP conjugate (Zymed®) at 1:2000 in antibody diluent was used to detect bound primary antibody. Goat anti-murine immunoglobulin antibody HRP conjugate (Dako) at 1:2000 in antibody diluent was used to detect bound murine antibody. After incubation at 25° C. for 1 hour the plate was washed again as previously described. TMB substrate solution (Zymed®) was added to each well and the colour allowed to develop; the reaction was terminated by adding 1M HCl to the wells. The absorbance of each well was determined at 450 nm (ref. 620 nm).

Antibody 136 [9] = biological target: B1; test: SPR control: PMA204 injected over Antibody 136 captured on Protein A, no cytokine
Description: as §5

human IL-23 [10] = biological target: T1, human IL-23; test: neutralization ELISA: IL-23 preincubated with antibody, its binding to coated IL-23R is blocked; remark: listed apart in the source
Summary of the method: as §3

human IL-12 [11] = biological target: T2, human IL-12; test: ELISA, coated IL-12
Description: as §6

human IL-12 [12] = biological target: T2, human IL-12; test: neutralization ELISA: IL-12 preincubated with antibody, its binding to coated IL-12Rβ2/Fc is blocked; remark: listed apart in the source
Summary of the method: as §4

human IL-12p40 [13] = biological target: T3, human IL-12p40 (human, UniProt P29460 23-328); test: SPR, IgG on Protein A
T3 construct: p40 monomer; also called p40 subunit
T3 sequence: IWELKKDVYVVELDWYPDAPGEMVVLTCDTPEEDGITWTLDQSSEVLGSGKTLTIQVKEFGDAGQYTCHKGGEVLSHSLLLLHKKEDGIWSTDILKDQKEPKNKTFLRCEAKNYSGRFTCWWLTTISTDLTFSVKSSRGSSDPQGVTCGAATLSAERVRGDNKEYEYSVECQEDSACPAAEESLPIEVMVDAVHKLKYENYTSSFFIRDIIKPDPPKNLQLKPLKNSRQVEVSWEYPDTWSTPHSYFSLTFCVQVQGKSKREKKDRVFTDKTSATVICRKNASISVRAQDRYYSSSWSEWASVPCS
Description: as §2

human IL-23 [14] = biological target: T1, human IL-23; test: SPR, IgG on Protein A; remark: listed apart in the source
Description: as §2

human IL-12 [15] = biological target: T2, human IL-12; test: SPR, IgG on Protein A; remark: listed apart in the source
Description: as §2

human IL-12p40 [16] = biological target: T3, human IL-12p40; test: ELISA, coated IL-12p40
Description: as §6

human IL-23 [17] = biological target: T1, human IL-23; test: SPR, IgG on Protein A; remark: listed apart in the source
Description: as §2

human IL-12 [18] = biological target: T2, human IL-12; test: SPR, IgG on Protein A; remark: listed apart in the source
Description: as §2

Binder: B1
- Kd (human IL-23 [1]): 0.105 nM
- koff (human IL-23 [1]): 0.000795 s⁻¹
- kon (human IL-23 [1]): 7.55e+06 M⁻¹ s⁻¹
- Kd (human IL-12 [2]): 0.197 nM
- koff (human IL-12 [2]): 0.000997 s⁻¹
- kon (human IL-12 [2]): 5.05e+06 M⁻¹ s⁻¹
- IC50 (read off the curve) (human IL-23 [3]): ~1 µg/mL
- EC50 (read off the curve) (human IL-23 [4]): ~0.06 µg/mL
- EC50 (read off the curve) (human IL-12 [5]): ~0.1 µg/mL
- IC50 (read off the curve) (human IL-12 [6]): ~0.4 µg/mL

B2: PMA202 (antibody, V domains shown)
VH: QIQLVQSGPELKKPGETVKISCKASGYTFTNYGMNWVKQAPGKGLKWMGWINTYTGEPTYADDFKGRFAFSLETSASTAYLQINNFKNEDTATYFCARSLSTMITTTFAYWGQGTLVTVSS
VL: SIVMTQTPKFLLVSAGDRVTITCKASQSVSNDVAWYQQKPGQSPKLLIYYASNRYTGVPDRFTGSGYGTDFTFTISTVQAEDLAVYFCQQDYSSPYTFGGGTKLEIKR
notes: Murine hybridoma antibody, murine IgG1kappa
- binding result (Antibody 136 [7]): no binding

B3: PMA204 (antibody, V domains shown)
VH: EVQLQQSGADLVRSGASIKLSCTASGFNIKDYYMHWVKQRPEQGLEWIGWIDPENGDTEYAPKFQGKATMTADTSSNTAYLQLSSLTSEDTAVYYCNACKELRYFDVWGAGTTVTVSS
VL: DIVLTQSPATLSVTPGDSVSLSCRASQSISINLHWYQQKSHESPRLLIKFASQSISGIPSRFSGYGSGTDFTLSINSVETEDFGRYFCQQSNSWPLTFGAGTKLELKR
notes: as for B2
- EC50 (read off the curve) (human IL-23 [8]): ~0.01 µg/mL
- binding result (Antibody 136 [9]): no binding
- IC50 (read off the curve) (human IL-23 [10]): ~0.6 µg/mL
- EC50 (read off the curve) (human IL-12 [11]): ~0.02 µg/mL
- IC50 (read off the curve) (human IL-12 [12]): ~0.2 µg/mL

B4: Antibody 1 (antibody, human IgG1, kappa, V domains shown)
VH: EVQLQQSGADLVRSGASIKLSCTASGFNIKDYYMHWVKQRPEQGLEWIGWIDPENGDTEYAPKFQGKATMTADTSSNTAYLQLSSLTSEDTAVYYCNACKELRYFDVWGAGTTVTVSS
VL: DIVLTQSPATLSVTPGDSVSLSCRASQSISINLHWYQQKSHESPRLLIKFASQSISGIPSRFSGYGSGTDFTLSINSVETEDFGRYFCQQSNSWPLTFGAGTKLELKR
notes: Chimeric PMA204, human IgG1/kappa
- IC50 (read off the curve) (human IL-23 [10]): ~1 µg/mL
- Kd (human IL-12p40 [13]): 0.0663 nM
- koff (human IL-12p40 [13]): 7.12e-05 s⁻¹
- kon (human IL-12p40 [13]): 1.07e+06 M⁻¹ s⁻¹
- Kd (human IL-23 [14]): 0.0446 nM
- koff (human IL-23 [14]): 0.000114 s⁻¹
- kon (human IL-23 [14]): 2.55e+06 M⁻¹ s⁻¹
- Kd (human IL-12 [15]): 0.0477 nM
- koff (human IL-12 [15]): 6.45e-05 s⁻¹
- kon (human IL-12 [15]): 1.36e+06 M⁻¹ s⁻¹
- EC50 (read off the curve) (human IL-12p40 [16]): ~0.03 µg/mL
- Kd (human IL-23 [17]): 0.0513 nM
- koff (human IL-23 [17]): 0.000146 s⁻¹
- kon (human IL-23 [17]): 2.85e+06 M⁻¹ s⁻¹
- Kd (human IL-12 [18]): 0.0795 nM
- koff (human IL-12 [18]): 0.000132 s⁻¹
- kon (human IL-12 [18]): 1.67e+06 M⁻¹ s⁻¹
- IC50 (read off the curve) (human IL-12 [12]): ~0.4 µg/mL
